The supplement of paper PMC9112550, “Optimization of the antimicrobial peptide Bac7 by deep mutational scanning” (BMC Biology, 2022)

test system: Escherichia coli TOP10; test: shrunken log2 fold change of peptide-encoding DNA abundance (4.5 h post-induction vs induction); higher = less antimicrobial activity (less host growth inhibition); settings: time post-induction: 4.5 h; library: site-saturation at positions 5, 18, 19, 20
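Further: peptides expressed intracellularly from a pBAD plasmid library in pooled LB shake-flask culture, induced with 0.3% L-arabinose, DNA abundance read by NGS, three biological replicates, DESeq2 with apeglm shrinkage.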

Sequence | shrunken log2 fold change
RRIRMRPPRLPRPRPRPFIQPRP | 0.0137
RRIRNRPPRLPRPRPRPRSTPRP | -0.0419
RRIRHRPPRLPRPRPRPHYSPRP | -0.142
RRIRSRPPRLPRPRPRPYAVPRP | -0.137
RRIRVRPPRLPRPRPRPMAMPRP | -0.00688
RRIRARPPRLPRPRPRPRHHPRP | 0.0585
RRIRIRPPRLPRPRPRPAMLPRP | -0.22
RRIRDRPPRLPRPRPRPFAYPRP | -0.101
RRIRHRPPRLPRPRPRPSVFPRP | -0.424
RRIRGRPPRLPRPRPRPWAMPRP | 0.483
RRIRERPPRLPRPRPRPHWYPRP | -1.19
RRIRPRPPRLPRPRPRPSQIPRP | -0.112
RRIRKRPPRLPRPRPRPIEMPRP | -0.202
RRIRFRPPRLPRPRPRPWSAPRP | -0.429
RRIRCRPPRLPRPRPRPTIWPRP | 0.105
RRIRHRPPRLPRPRPRPIQIPRP | -0.139
RRIRWRPPRLPRPRPRPGMMPRP | 0.113
RRIRGRPPRLPRPRPRPVRFPRP | 0.685
RRIRARPPRLPRPRPRPWRIPRP | -0.0489
RRIRIRPPRLPRPRPRPDMSPRP | -0.00804
RRIRVRPPRLPRPRPRPREQPRP | 0.0561
RRIRYRPPRLPRPRPRPRQDPRP | -0.216
RRIRIRPPRLPRPRPRPMAKPRP | -0.00776
RRIRFRPPRLPRPRPRPVMVPRP | -1.14
RRIRIRPPRLPRPRPRPEGKPRP | -0.0199

Sequence | shrunken log2 fold change
RRIRRRPPRLPRPRPRPVMLPRP | -0.0342
RRIRCRPPRLPRPRPRPPTRPRP | 0.645
RRIRCRPPRLPRPRPRPEVWPRP | 0.725
RRIRSRPPRLPRPRPRPMRHPRP | 3.44
RRIRTRPPRLPRPRPRPNHTPRP | -0.312
RRIRCRPPRLPRPRPRPHAIPRP | -0.139
RRIRNRPPRLPRPRPRPSVYPRP | -0.172
RRIRARPPRLPRPRPRPGGSPRP | 0.535
RRIRDRPPRLPRPRPRPGWHPRP | 0.27
RRIRPRPPRLPRPRPRPCWFPRP | -0.0933
RRIRRRPPRLPRPRPRPDRPPRP | 0.13
RRIRRRPPRLPRPRPRPLFLPRP | -0.173
RRIRRRPPRLPRPRPRPLERPRP | 0.0981
RRIRLRPPRLPRPRPRPAPAPRP | 0.512
RRIRERPPRLPRPRPRPNRHPRP | -0.516
RRIRTRPPRLPRPRPRPQAPPRP | -0.1
RRIRGRPPRLPRPRPRPENVPRP | 0.328
RRIRARPPRLPRPRPRPGIWPRP | 0.168
RRIRTRPPRLPRPRPRPYTLPRP | -0.000759
RRIRFRPPRLPRPRPRPFDYPRP | -0.111
RRIRSRPPRLPRPRPRPYDQPRP | -0.21
RRIRKRPPRLPRPRPRPYTGPRP | -0.318
RRIRGRPPRLPRPRPRPCGYPRP | 0.216
RRIRNRPPRLPRPRPRPDVAPRP | 0.285
RRIRRRPPRLPRPRPRPVNDPRP | 0.52

Sequence | shrunken log2 fold change
RRIRKRPPRLPRPRPRPEDYPRP | 1.15
RRIRIRPPRLPRPRPRPWWVPRP | -0.077
RRIRFRPPRLPRPRPRPMKRPRP | 0.347
RRIRMRPPRLPRPRPRPRTNPRP | 0.295
RRIRGRPPRLPRPRPRPHIIPRP | 0.234
RRIRWRPPRLPRPRPRPLAPPRP | 0.664
RRIRHRPPRLPRPRPRPRVIPRP | -0.12
RRIRKRPPRLPRPRPRPQIVPRP | 0.119
RRIRQRPPRLPRPRPRPELSPRP | -0.00478
RRIRYRPPRLPRPRPRPLADPRP | -0.213
RRIRDRPPRLPRPRPRPIHPPRP | -0.125
RRIRLRPPRLPRPRPRPQQMPRP | -0.29
RRIRCRPPRLPRPRPRPYMIPRP | -0.582
RRIRGRPPRLPRPRPRPRRDPRP | 0.424
RRIRERPPRLPRPRPRPGGHPRP | 0.0363
RRIRQRPPRLPRPRPRPNFWPRP | -0.00668
RRIRQRPPRLPRPRPRPAYEPRP | -0.00926
RRIRTRPPRLPRPRPRPEELPRP | 0.0343
RRIRTRPPRLPRPRPRPCLTPRP | -0.319
RRIRQRPPRLPRPRPRPRSDPRP | -0.208
RRIRYRPPRLPRPRPRPILKPRP | -1.06
RRIRYRPPRLPRPRPRPHPNPRP | -0.758
RRIRMRPPRLPRPRPRPTFPPRP | 0.0878
RRIRCRPPRLPRPRPRPQRCPRP | -0.0802
RRIRYRPPRLPRPRPRPQYKPRP | -0.179
